Positions of bridges follow the written chain, without caps; N, C: chain ends. Non-standard residues stand in square brackets, D forms with d. Trp(1-Me) = Cn1cc(C[C@H](N)C(=O)O)c2ccccc21; Sar = CNCC(=O)O
B1: Compound 42 (peptide)
peptide: Ac-SAICIWQDWGEHRCTEG-NH2
modifications: disulfide 4-14
SMILES: CC[C@H](C)[C@H](NC(=O)[C@H](C)NC(=O)[C@H](CO)NC(C)=O)C(=O)N[C@H]1CSSC[C@@H](C(=O)N[C@H](C(=O)N[C@@H](CCC(=O)O)C(=O)NCC(N)=O)[C@@H](C)O)NC(=O)[C@H](CCCNC(=N)N)NC(=O)[C@H](Cc2c[nH]cn2)NC(=O)[C@H](CCC(=O)O)NC(=O)CNC(=O)[C@H](Cc2c[nH]c3ccccc23)NC(=O)[C@H](CC(=O)O)NC(=O)[C@H](CCC(N)=O)NC(=O)[C@H](Cc2c[nH]c3ccccc23)NC(=O)[C@H]([C@@H](C)CC)NC1=O
B2: Compound 45 (peptide)
peptide: Ac-EGSAFCIWQDWGEHRC[Sar]E-NH2
modifications: disulfide 6-16
SMILES: CC[C@H](C)[C@@H]1NC(=O)[C@@H](NC(=O)[C@H](Cc2ccccc2)NC(=O)[C@H](C)NC(=O)[C@H](CO)NC(=O)CNC(=O)[C@H](CCC(=O)O)NC(C)=O)CSSC[C@@H](C(=O)N(C)CC(=O)N[C@@H](CCC(=O)O)C(N)=O)NC(=O)[C@H](CCCNC(=N)N)NC(=O)[C@H](Cc2c[nH]cn2)NC(=O)[C@H](CCC(=O)O)NC(=O)CNC(=O)[C@H](Cc2c[nH]c3ccccc23)NC(=O)[C@H](CC(=O)O)NC(=O)[C@H](CCC(N)=O)NC(=O)[C@H](Cc2c[nH]c3ccccc23)NC1=O
B3: Compound 40 (peptide)
peptide: Ac-GSAICIWQDWGEHRC[Sar]E-NH2
modifications: disulfide 5-15
SMILES: CC[C@H](C)[C@H](NC(=O)[C@H](C)NC(=O)[C@H](CO)NC(=O)CNC(C)=O)C(=O)N[C@H]1CSSC[C@@H](C(=O)N(C)CC(=O)N[C@@H](CCC(=O)O)C(N)=O)NC(=O)[C@H](CCCNC(=N)N)NC(=O)[C@H](Cc2c[nH]cn2)NC(=O)[C@H](CCC(=O)O)NC(=O)CNC(=O)[C@H](Cc2c[nH]c3ccccc23)NC(=O)[C@H](CC(=O)O)NC(=O)[C@H](CCC(N)=O)NC(=O)[C@H](Cc2c[nH]c3ccccc23)NC(=O)[C@H]([C@@H](C)CC)NC1=O
B4: Compound 51 (peptide)
peptide: Ac-ICI[Trp(1-Me)]QDWGEHRCTGAES-NH2
modifications: disulfide 2-12
SMILES: CC[C@H](C)[C@H](NC(C)=O)C(=O)N[C@H]1CSSC[C@@H](C(=O)N[C@H](C(=O)NCC(=O)N[C@@H](C)C(=O)N[C@@H](CCC(=O)O)C(=O)N[C@@H](CO)C(N)=O)[C@@H](C)O)NC(=O)[C@H](CCCNC(=N)N)NC(=O)[C@H](Cc2c[nH]cn2)NC(=O)[C@H](CCC(=O)O)NC(=O)CNC(=O)[C@H](Cc2c[nH]c3ccccc23)NC(=O)[C@H](CC(=O)O)NC(=O)[C@H](CCC(N)=O)NC(=O)[C@H](Cc2cn(C)c3ccccc23)NC(=O)[C@H]([C@@H](C)CC)NC1=O
B5: Compound 44 (peptide)
peptide: Ac-EGSAICIWQDWGEHRC[Sar]EGE-NH2
modifications: disulfide 6-16
SMILES: CC[C@H](C)[C@H](NC(=O)[C@H](C)NC(=O)[C@H](CO)NC(=O)CNC(=O)[C@H](CCC(=O)O)NC(C)=O)C(=O)N[C@H]1CSSC[C@@H](C(=O)N(C)CC(=O)N[C@@H](CCC(=O)O)C(=O)NCC(=O)N[C@@H](CCC(=O)O)C(N)=O)NC(=O)[C@H](CCCNC(=N)N)NC(=O)[C@H](Cc2c[nH]cn2)NC(=O)[C@H](CCC(=O)O)NC(=O)CNC(=O)[C@H](Cc2c[nH]c3ccccc23)NC(=O)[C@H](CC(=O)O)NC(=O)[C@H](CCC(N)=O)NC(=O)[C@H](Cc2c[nH]c3ccccc23)NC(=O)[C@H]([C@@H](C)CC)NC1=O
B6: Compound 36 (peptide)
peptide: Ac-ESEICIWQDWGEHRCEGE-NH2
modifications: disulfide 5-15
SMILES: CC[C@H](C)[C@@H]1NC(=O)[C@@H](NC(=O)[C@@H](NC(=O)[C@H](CCC(=O)O)NC(=O)[C@H](CO)NC(=O)[C@H](CCC(=O)O)NC(C)=O)[C@@H](C)CC)CSSC[C@@H](C(=O)N[C@@H](CCC(=O)O)C(=O)NCC(=O)N[C@@H](CCC(=O)O)C(N)=O)NC(=O)[C@H](CCCNC(=N)N)NC(=O)[C@H](Cc2c[nH]cn2)NC(=O)[C@H](CCC(=O)O)NC(=O)CNC(=O)[C@H](Cc2c[nH]c3ccccc23)NC(=O)[C@H](CC(=O)O)NC(=O)[C@H](CCC(N)=O)NC(=O)[C@H](Cc2c[nH]c3ccccc23)NC1=O
B7: Compound 37 (peptide)
peptide: Ac-KEKICIWQDWGEHRCTEKE-NH2
modifications: disulfide 5-15
SMILES: CC[C@H](C)[C@@H]1NC(=O)[C@@H](NC(=O)[C@@H](NC(=O)[C@H](CCCCN)NC(=O)[C@H](CCC(=O)O)NC(=O)[C@H](CCCCN)NC(C)=O)[C@@H](C)CC)CSSC[C@@H](C(=O)N[C@H](C(=O)N[C@@H](CCC(=O)O)C(=O)N[C@@H](CCCCN)C(=O)N[C@@H](CCC(=O)O)C(N)=O)[C@@H](C)O)NC(=O)[C@H](CCCNC(=N)N)NC(=O)[C@H](Cc2c[nH]cn2)NC(=O)[C@H](CCC(=O)O)NC(=O)CNC(=O)[C@H](Cc2c[nH]c3ccccc23)NC(=O)[C@H](CC(=O)O)NC(=O)[C@H](CCC(N)=O)NC(=O)[C@H](Cc2c[nH]c3ccccc23)NC1=O
B8: Compound 41 (peptide)
peptide: Ac-SAICIWQDWGEHRC[Sar]E-NH2
modifications: disulfide 4-14
SMILES: CC[C@H](C)[C@H](NC(=O)[C@H](C)NC(=O)[C@H](CO)NC(C)=O)C(=O)N[C@H]1CSSC[C@@H](C(=O)N(C)CC(=O)N[C@@H](CCC(=O)O)C(N)=O)NC(=O)[C@H](CCCNC(=N)N)NC(=O)[C@H](Cc2c[nH]cn2)NC(=O)[C@H](CCC(=O)O)NC(=O)CNC(=O)[C@H](Cc2c[nH]c3ccccc23)NC(=O)[C@H](CC(=O)O)NC(=O)[C@H](CCC(N)=O)NC(=O)[C@H](Cc2c[nH]c3ccccc23)NC(=O)[C@H]([C@@H](C)CC)NC1=O
B9: Compound 46 (peptide)
peptide: Ac-ESSAICIWQDWGAHRCT-NH2
modifications: disulfide 6-16
SMILES: CC[C@H](C)[C@H](NC(=O)[C@H](C)NC(=O)[C@H](CO)NC(=O)[C@H](CO)NC(=O)[C@H](CCC(=O)O)NC(C)=O)C(=O)N[C@H]1CSSC[C@@H](C(=O)N[C@H](C(N)=O)[C@@H](C)O)NC(=O)[C@H](CCCNC(=N)N)NC(=O)[C@H](Cc2c[nH]cn2)NC(=O)[C@H](C)NC(=O)CNC(=O)[C@H](Cc2c[nH]c3ccccc23)NC(=O)[C@H](CC(=O)O)NC(=O)[C@H](CCC(N)=O)NC(=O)[C@H](Cc2c[nH]c3ccccc23)NC(=O)[C@H]([C@@H](C)CC)NC1=O
B10: Compound 39 (peptide)
peptide: Ac-ICIWQDWGEHRCTEGK-NH2
modifications: disulfide 2-12
SMILES: CC[C@H](C)[C@H](NC(C)=O)C(=O)N[C@H]1CSSC[C@@H](C(=O)N[C@H](C(=O)N[C@@H](CCC(=O)O)C(=O)NCC(=O)N[C@@H](CCCCN)C(N)=O)[C@@H](C)O)NC(=O)[C@H](CCCNC(=N)N)NC(=O)[C@H](Cc2c[nH]cn2)NC(=O)[C@H](CCC(=O)O)NC(=O)CNC(=O)[C@H](Cc2c[nH]c3ccccc23)NC(=O)[C@H](CC(=O)O)NC(=O)[C@H](CCC(N)=O)NC(=O)[C@H](Cc2c[nH]c3ccccc23)NC(=O)[C@H]([C@@H](C)CC)NC1=O
B11: Compound 38 (peptide)
peptide: Ac-EKGICIWQDWGEHRCTEKP-NH2
modifications: disulfide 5-15
SMILES: CC[C@H](C)[C@H](NC(=O)CNC(=O)[C@H](CCCCN)NC(=O)[C@H](CCC(=O)O)NC(C)=O)C(=O)N[C@H]1CSSC[C@@H](C(=O)N[C@H](C(=O)N[C@@H](CCC(=O)O)C(=O)N[C@@H](CCCCN)C(=O)N2CCC[C@H]2C(N)=O)[C@@H](C)O)NC(=O)[C@H](CCCNC(=N)N)NC(=O)[C@H](Cc2c[nH]cn2)NC(=O)[C@H](CCC(=O)O)NC(=O)CNC(=O)[C@H](Cc2c[nH]c3ccccc23)NC(=O)[C@H](CC(=O)O)NC(=O)[C@H](CCC(N)=O)NC(=O)[C@H](Cc2c[nH]c3ccccc23)NC(=O)[C@H]([C@@H](C)CC)NC1=O
B12: Compound 35 (peptide)
peptide: Ac-EGEICIWQDWGEHRCEGE-NH2
modifications: disulfide 5-15
SMILES: CC[C@H](C)[C@@H]1NC(=O)[C@@H](NC(=O)[C@@H](NC(=O)[C@H](CCC(=O)O)NC(=O)CNC(=O)[C@H](CCC(=O)O)NC(C)=O)[C@@H](C)CC)CSSC[C@@H](C(=O)N[C@@H](CCC(=O)O)C(=O)NCC(=O)N[C@@H](CCC(=O)O)C(N)=O)NC(=O)[C@H](CCCNC(=N)N)NC(=O)[C@H](Cc2c[nH]cn2)NC(=O)[C@H](CCC(=O)O)NC(=O)CNC(=O)[C@H](Cc2c[nH]c3ccccc23)NC(=O)[C@H](CC(=O)O)NC(=O)[C@H](CCC(N)=O)NC(=O)[C@H](Cc2c[nH]c3ccccc23)NC1=O
B13: Compound 47 (peptide)
peptide: Ac-ICIWQDWGAHRCTGAES-NH2
modifications: disulfide 2-12
SMILES: CC[C@H](C)[C@H](NC(C)=O)C(=O)N[C@H]1CSSC[C@@H](C(=O)N[C@H](C(=O)NCC(=O)N[C@@H](C)C(=O)N[C@@H](CCC(=O)O)C(=O)N[C@@H](CO)C(N)=O)[C@@H](C)O)NC(=O)[C@H](CCCNC(=N)N)NC(=O)[C@H](Cc2c[nH]cn2)NC(=O)[C@H](C)NC(=O)CNC(=O)[C@H](Cc2c[nH]c3ccccc23)NC(=O)[C@H](CC(=O)O)NC(=O)[C@H](CCC(N)=O)NC(=O)[C@H](Cc2c[nH]c3ccccc23)NC(=O)[C@H]([C@@H](C)CC)NC1=O

Biological target: Human C3 (Complement tech cat #A113c) (human, UniProt P01024 23-1663)
Sequence (P01024 23-1663 limits assumed): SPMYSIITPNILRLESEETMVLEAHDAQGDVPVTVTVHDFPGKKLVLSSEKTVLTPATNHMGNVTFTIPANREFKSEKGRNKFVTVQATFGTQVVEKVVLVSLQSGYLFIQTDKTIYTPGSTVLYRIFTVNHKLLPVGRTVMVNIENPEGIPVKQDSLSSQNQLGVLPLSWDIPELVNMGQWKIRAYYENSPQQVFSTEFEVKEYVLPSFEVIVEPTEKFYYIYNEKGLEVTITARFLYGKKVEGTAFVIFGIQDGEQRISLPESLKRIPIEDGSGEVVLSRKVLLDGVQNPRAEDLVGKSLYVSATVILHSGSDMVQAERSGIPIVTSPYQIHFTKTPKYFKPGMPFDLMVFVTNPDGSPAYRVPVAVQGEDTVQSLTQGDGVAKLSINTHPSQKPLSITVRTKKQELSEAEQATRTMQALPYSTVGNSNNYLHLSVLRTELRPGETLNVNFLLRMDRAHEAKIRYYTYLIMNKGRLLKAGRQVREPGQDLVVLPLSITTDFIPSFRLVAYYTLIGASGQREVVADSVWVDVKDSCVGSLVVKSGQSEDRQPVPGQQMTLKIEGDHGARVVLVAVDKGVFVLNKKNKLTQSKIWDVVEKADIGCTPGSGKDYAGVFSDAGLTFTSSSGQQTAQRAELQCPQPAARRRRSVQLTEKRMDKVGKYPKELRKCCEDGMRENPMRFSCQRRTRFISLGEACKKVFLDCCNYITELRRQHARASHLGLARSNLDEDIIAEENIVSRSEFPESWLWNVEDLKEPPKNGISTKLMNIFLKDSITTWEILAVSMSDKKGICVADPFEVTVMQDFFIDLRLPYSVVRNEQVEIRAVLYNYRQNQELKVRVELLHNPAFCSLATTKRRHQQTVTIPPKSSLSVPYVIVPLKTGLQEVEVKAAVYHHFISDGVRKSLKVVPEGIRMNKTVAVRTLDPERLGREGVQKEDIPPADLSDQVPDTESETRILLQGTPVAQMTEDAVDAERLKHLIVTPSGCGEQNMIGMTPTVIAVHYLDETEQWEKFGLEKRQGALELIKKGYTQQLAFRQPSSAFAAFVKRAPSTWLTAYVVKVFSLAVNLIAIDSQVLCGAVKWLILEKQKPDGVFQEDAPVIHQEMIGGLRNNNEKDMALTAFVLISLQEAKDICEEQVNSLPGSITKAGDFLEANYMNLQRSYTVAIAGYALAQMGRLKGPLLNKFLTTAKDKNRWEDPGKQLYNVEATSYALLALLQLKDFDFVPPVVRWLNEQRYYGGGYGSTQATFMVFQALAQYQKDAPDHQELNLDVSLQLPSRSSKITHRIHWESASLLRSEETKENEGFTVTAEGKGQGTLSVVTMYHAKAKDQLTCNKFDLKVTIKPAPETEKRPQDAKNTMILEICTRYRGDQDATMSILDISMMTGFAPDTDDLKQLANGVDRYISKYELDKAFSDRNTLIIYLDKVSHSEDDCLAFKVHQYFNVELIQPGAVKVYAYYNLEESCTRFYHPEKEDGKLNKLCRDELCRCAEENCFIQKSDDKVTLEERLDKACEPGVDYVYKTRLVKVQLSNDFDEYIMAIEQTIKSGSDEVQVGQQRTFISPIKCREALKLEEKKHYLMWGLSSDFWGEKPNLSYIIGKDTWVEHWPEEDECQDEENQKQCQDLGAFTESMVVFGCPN
Experiment: cell-based or functional assay

Q: B1 was tested. Which “inhibition of hemolysis IC50” value did it give?
A: < 250 nM

Q: Which “inhibition of hemolysis IC50” value does the source give for B2 here?
A: < 100 nM

Q: B3 was tested. Which “inhibition of hemolysis IC50” value did it give?
A: < 250 nM

Q: For B4, which “inhibition of hemolysis IC50” value is on record?
A: < 100 nM

Q: With B5 as the binder, how does the “inhibition of hemolysis IC50” value read?
A: < 250 nM

Q: How did the “inhibition of hemolysis IC50” value turn out when B6 was run?
A: < 250 nM

Q: For B7, which “inhibition of hemolysis IC50” value is on record?
A: < 250 nM

Q: Which “inhibition of hemolysis IC50” value does the source give for B8 here?
A: < 250 nM

Q: For B9, which “inhibition of hemolysis IC50” value is on record?
A: < 100 nM

Q: How did the “inhibition of hemolysis IC50” value turn out when B10 was run?
A: < 100 nM

Q: How did the “inhibition of hemolysis IC50” value turn out when B11 was run?
A: < 250 nM

Q: How did the “inhibition of hemolysis IC50” value turn out when B12 was run?
A: < 500 nM

Q: B13 was tested. Which “inhibition of hemolysis IC50” value did it give?
A: < 100 nM

Source: US11965039B2, “Compstatin analogues and their medical uses” (priority 2018, dated 2024)
